The target in experiment [1] is HTR2A N107A^2.37 mutant (human) (UniProt P28223).
Experiment [2] deals with HTR2A R185A^ICL2 mutant (human) (UniProt P28223).

Take “Gαq wild-type (GαrLuc8 of the BRET2 assay) (from UniProt P50148 1-359) (natural protein)”: the BRET2 assay, decrease of the efficacy of 25CN-NBOH in experiment [1] and in experiment [2] was 50% each time.
